Data as given in the supplement of paper PMC9112550, “Optimization of the antimicrobial peptide Bac7 by deep mutational scanning” (BMC Biology, 2022).

Each sequence was assayed on Escherichia coli TOP10 (assay: shrunken log2 fold change of peptide-encoding DNA abundance (4.5 h post-induction vs induction); higher = less antimicrobial activity (less host growth inhibition)). Conditions: time post-induction: 4.5 h; library: site-saturation at positions 5, 18, 19, 20.
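Further: peptides expressed intracellularly from a pBAD plasmid library in pooled LB shake-flask culture, induced with 0.3% L-arabinose, DNA abundance read by NGS, three biological replicates, DESeq2 with apeglm shrinkage.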

Row | Sequence | shrunken log2 fold change
1 | RRIRCRPPRLPRPRPRPRDLPRP | 0.108
2 | RRIRKRPPRLPRPRPRPSCIPRP | -0.0677
3 | RRIRERPPRLPRPRPRPKAKPRP | -0.0257
4 | RRIRVRPPRLPRPRPRPCLYPRP | -0.0189
5 | RRIRPRPPRLPRPRPRPIDAPRP | 0.159
6 | RRIRHRPPRLPRPRPRPMDDPRP | -0.118
7 | RRIRWRPPRLPRPRPRPGPRPRP | 0.514
8 | RRIRVRPPRLPRPRPRPENCPRP | -0.0723
9 | RRIRHRPPRLPRPRPRPSTNPRP | -0.275
10 | RRIRARPPRLPRPRPRPFLQPRP | 0.123
11 | RRIRARPPRLPRPRPRPCEHPRP | 0.0977
12 | RRIRHRPPRLPRPRPRPIIVPRP | -0.0935
13 | RRIRKRPPRLPRPRPRPLCVPRP | 0.247
14 | RRIRYRPPRLPRPRPRPRRYPRP | -0.492
15 | RRIRPRPPRLPRPRPRPDGMPRP | -0.0319
16 | RRIRNRPPRLPRPRPRPRNGPRP | -0.0619
17 | RRIRNRPPRLPRPRPRPQPPPRP | 0.833
18 | RRIRHRPPRLPRPRPRPTRPPRP | 0.234
19 | RRIRDRPPRLPRPRPRPSQAPRP | 0.136
20 | RRIRDRPPRLPRPRPRPTNGPRP | -0.0673
21 | RRIRSRPPRLPRPRPRPVAMPRP | 0.0384
22 | RRIRDRPPRLPRPRPRPLIEPRP | 0.573
23 | RRIRWRPPRLPRPRPRPAINPRP | 0.185
24 | RRIRMRPPRLPRPRPRPEQKPRP | -0.0148
25 | RRIRCRPPRLPRPRPRPGMDPRP | -0.0572

Row | Sequence | shrunken log2 fold change
26 | RRIRQRPPRLPRPRPRPKFVPRP | -0.105
27 | RRIRRRPPRLPRPRPRPRTFPRP | 0.338
28 | RRIRFRPPRLPRPRPRPKENPRP | -0.222
29 | RRIRIRPPRLPRPRPRPGDQPRP | -0.0693
30 | RRIRRRPPRLPRPRPRPQISPRP | -0.0603
31 | RRIRSRPPRLPRPRPRPECGPRP | 0.646
32 | RRIRTRPPRLPRPRPRPASGPRP | 0.614
33 | RRIRFRPPRLPRPRPRPRKDPRP | -0.302
34 | RRIRHRPPRLPRPRPRPQKEPRP | -0.03
35 | RRIRYRPPRLPRPRPRPPLLPRP | -0.385
36 | RRIRTRPPRLPRPRPRPAHGPRP | 0.00693
37 | RRIRPRPPRLPRPRPRPKPEPRP | 0.311
38 | RRIRIRPPRLPRPRPRPLYEPRP | -0.649
39 | RRIRMRPPRLPRPRPRPPAGPRP | 1.5
40 | RRIRNRPPRLPRPRPRPFCKPRP | -0.835
41 | RRIRYRPPRLPRPRPRPSSGPRP | 0.00646
42 | RRIRDRPPRLPRPRPRPQQYPRP | -0.473
43 | RRIRKRPPRLPRPRPRPGASPRP | 0.787
44 | RRIRTRPPRLPRPRPRPYTPPRP | -0.34
45 | RRIRLRPPRLPRPRPRPMNCPRP | -0.507
46 | RRIRVRPPRLPRPRPRPAPWPRP | 0.395
47 | RRIRVRPPRLPRPRPRPELLPRP | 0.0724
48 | RRIRWRPPRLPRPRPRPNELPRP | 0.073
49 | RRIRGRPPRLPRPRPRPILIPRP | 0.191
50 | RRIRVRPPRLPRPRPRPWWFPRP | -0.307

Row | Sequence | shrunken log2 fold change
51 | RRIRTRPPRLPRPRPRPDDAPRP | -0.0135
52 | RRIRQRPPRLPRPRPRPPMIPRP | 0.0721
53 | RRIRMRPPRLPRPRPRPQCTPRP | 0.0479
54 | RRIRVRPPRLPRPRPRPENIPRP | -0.125
55 | RRIRYRPPRLPRPRPRPAENPRP | -0.317
56 | RRIRGRPPRLPRPRPRPAMDPRP | 0.491
57 | RRIRARPPRLPRPRPRPGYQPRP | 0.0478
58 | RRIRTRPPRLPRPRPRPSQNPRP | -0.00631
59 | RRIRSRPPRLPRPRPRPMLNPRP | -0.198
60 | RRIRKRPPRLPRPRPRPAYIPRP | 0.0173
61 | RRIRIRPPRLPRPRPRPKLRPRP | 0.349
62 | RRIRRRPPRLPRPRPRPNVWPRP | 1.99
63 | RRIRTRPPRLPRPRPRPWKEPRP | -0.0407
64 | RRIRTRPPRLPRPRPRPIYHPRP | -0.191
65 | RRIRWRPPRLPRPRPRPVMNPRP | -0.133
66 | RRIRNRPPRLPRPRPRPLRNPRP | 0.267
67 | RRIRYRPPRLPRPRPRPMGHPRP | -1.16
68 | RRIRMRPPRLPRPRPRPQFAPRP | 0.0822
69 | RRIRERPPRLPRPRPRPFLFPRP | -0.286
70 | RRIRWRPPRLPRPRPRPGFLPRP | 0.144
71 | RRIRARPPRLPRPRPRPNNIPRP | -0.537
72 | RRIRLRPPRLPRPRPRPPCKPRP | 0.15
73 | RRIRWRPPRLPRPRPRPLQAPRP | 0.721
74 | RRIRLRPPRLPRPRPRPYLFPRP | -0.602
75 | RRIRCRPPRLPRPRPRPLNEPRP | -0.0566

Row | Sequence | shrunken log2 fold change
76 | RRIRDRPPRLPRPRPRPESSPRP | 0.27
77 | RRIRCRPPRLPRPRPRPLMQPRP | 0.0849
78 | RRIRYRPPRLPRPRPRPVIHPRP | -0.0643
79 | RRIRTRPPRLPRPRPRPTMYPRP | -0.82
80 | RRIRMRPPRLPRPRPRPVTPPRP | 0.614
81 | RRIRFRPPRLPRPRPRPGYYPRP | -0.195
82 | RRIRTRPPRLPRPRPRPVGEPRP | -0.0292
83 | RRIRNRPPRLPRPRPRPRFCPRP | 0.254
84 | RRIRQRPPRLPRPRPRPNGMPRP | -0.0839
85 | RRIRMRPPRLPRPRPRPWQPPRP | -0.0454
86 | RRIRERPPRLPRPRPRPWGCPRP | -0.364
87 | RRIRNRPPRLPRPRPRPWHEPRP | -0.454
88 | RRIRYRPPRLPRPRPRPMCMPRP | -0.214
89 | RRIRLRPPRLPRPRPRPAGFPRP | 0.46
90 | RRIRSRPPRLPRPRPRPFNMPRP | -0.907
91 | RRIRGRPPRLPRPRPRPCETPRP | 0.496
92 | RRIRPRPPRLPRPRPRPRVDPRP | 0.263
93 | RRIRWRPPRLPRPRPRPAMDPRP | 0.109
94 | RRIRYRPPRLPRPRPRPPLPPRP | 0.184
95 | RRIRIRPPRLPRPRPRPYITPRP | -1.34
96 | RRIRNRPPRLPRPRPRPCMSPRP | -0.108
97 | RRIRDRPPRLPRPRPRPCEEPRP | -0.187
98 | RRIRIRPPRLPRPRPRPRDLPRP | 0.067
99 | RRIRFRPPRLPRPRPRPLYIPRP | -0.63
100 | RRIRERPPRLPRPRPRPFIPPRP | -0.481

Row | Sequence | shrunken log2 fold change
101 | RRIRPRPPRLPRPRPRPLRPPRP | 0.726
102 | RRIRHRPPRLPRPRPRPARPPRP | 0.502
103 | RRIRSRPPRLPRPRPRPIRPPRP | -0.157
104 | RRIRMRPPRLPRPRPRPEWMPRP | 0.156
105 | RRIRKRPPRLPRPRPRPGWHPRP | 0.133
106 | RRIRGRPPRLPRPRPRPKEMPRP | 0.5
107 | RRIRYRPPRLPRPRPRPDVWPRP | -0.194
108 | RRIRTRPPRLPRPRPRPECQPRP | 0.0443
109 | RRIRNRPPRLPRPRPRPQIFPRP | -0.27
110 | RRIRMRPPRLPRPRPRPMWAPRP | 0.392
111 | RRIRTRPPRLPRPRPRPHGAPRP | -0.0597
112 | RRIRQRPPRLPRPRPRPSKTPRP | -0.0854
113 | RRIRYRPPRLPRPRPRPENPPRP | -0.382
114 | RRIRNRPPRLPRPRPRPEKMPRP | -0.00664
115 | RRIRLRPPRLPRPRPRPQDYPRP | -0.31
116 | RRIRDRPPRLPRPRPRPFHNPRP | -0.271
117 | RRIRSRPPRLPRPRPRPPLNPRP | 0.0261
118 | RRIRVRPPRLPRPRPRPFGHPRP | 0.13
119 | RRIRDRPPRLPRPRPRPKFGPRP | 0.0019
120 | RRIRARPPRLPRPRPRPMVDPRP | 0.299
121 | RRIRSRPPRLPRPRPRPFCCPRP | -0.14
122 | RRIRQRPPRLPRPRPRPSHVPRP | -0.367
123 | RRIRIRPPRLPRPRPRPEEAPRP | 0.215
124 | RRIRFRPPRLPRPRPRPCCKPRP | -0.00992
125 | RRIRMRPPRLPRPRPRPGRAPRP | 1.27

Row | Sequence | shrunken log2 fold change
126 | RRIRDRPPRLPRPRPRPFQWPRP | -0.156
127 | RRIRWRPPRLPRPRPRPDYQPRP | -0.101
128 | RRIRSRPPRLPRPRPRPLIKPRP | -0.258
129 | RRIRARPPRLPRPRPRPNEYPRP | -0.284
130 | RRIRERPPRLPRPRPRPETCPRP | -0.127
131 | RRIRMRPPRLPRPRPRPYHCPRP | -0.72
132 | RRIRCRPPRLPRPRPRPQNLPRP | -0.49
133 | RRIRKRPPRLPRPRPRPVAMPRP | 1.67
134 | RRIRMRPPRLPRPRPRPMLTPRP | 2.52
135 | RRIRDRPPRLPRPRPRPWMGPRP | -0.368
136 | RRIRARPPRLPRPRPRPHKAPRP | 0.102
137 | RRIRYRPPRLPRPRPRPFELPRP | -0.529
138 | RRIRNRPPRLPRPRPRPKEHPRP | -0.0991
139 | RRIRYRPPRLPRPRPRPWGTPRP | -0.0285
140 | RRIRCRPPRLPRPRPRPVKQPRP | -0.222
141 | RRIRHRPPRLPRPRPRPNFQPRP | -0.161
142 | RRIRNRPPRLPRPRPRPTGYPRP | -0.0249
143 | RRIRKRPPRLPRPRPRPKNMPRP | -0.129
144 | RRIRWRPPRLPRPRPRPTRRPRP | 0.377
145 | RRIRDRPPRLPRPRPRPDTTPRP | 0.345
146 | RRIRARPPRLPRPRPRPSRLPRP | 0.487
147 | RRIRDRPPRLPRPRPRPSHQPRP | -0.211
148 | RRIRARPPRLPRPRPRPPIAPRP | 0.534
149 | RRIRIRPPRLPRPRPRPAIDPRP | -0.239
150 | RRIRHRPPRLPRPRPRPGWIPRP | -0.051
